Reference: a protein production outcome set (Wang et al. 2014)

Assay: label from the status in PepcDB records

Row | Sequence | protein production
1 | MSRSPEQDSDWMTGVGDSAAGESARVARLVRVAQHIEMHADEALTLSSLAKVAALSPSRLQKQFKAAFGVSPKAYQDAVRMRRFKQSLKDGSKVTDAIFASGFGSVSRVYGEANRSIGMPPRAYRAGGAGEVIVYAGRTTALGLMMMAATERGVCFVEFGDDEASLVGRLRSEFPKAELTASPARNAPELDAWMEALDQHISAGAPRPDLPLDMRGTAFQVKVWQFLLSIREGDVLSYSEVAARIDKPRAVRAVASACGKNRIGVLIPCHRVLRGDGGLGGYRWGLERKRALLEAERRSVTRE | failed
2 | MSRSVPDRWNMHKPMLCDSLPTASRTAAAILNLAQREDVTAEALAQLIQTDPALTGRILRFANAPAQGTRRPVASVIDAIDLVGLPAVRQFALSLSLIDAHREGRCEAFDYAAYWQKSLARAVALQSITAQASTVAPKEAFTLGLLADVGRLALATAWPEEYSECLRKADGEALIALERERFATDHDELTRMLLTDWGFPQVFIDALQLSQQDEIRDEGRTGRFARQLALAQHIADHRLAEEPRRAALSPLLRAEARRCGLGDEDLARLLADPPADWLDWTRTIGLPGDAPTGGAEPSRPPPQTDEKLHVLLADDDPIMLARLSRQLEADGHHVASRRDGETALAYALEHQPEMVITDWHMKPMNGLELCRALRESALGGNVYIVMLTASESEDALVEAFGAGIDDYVIKPPSVRVLKARIRAGQRIITLHKKLARERKEIERYSSELAAANRRLELMAHTDQLTGLPNRRYAMDRLEREWAQARTFDRPLSIMMLDLDWFKSINDSLGHDAGDQALVHAARVMRETVRTSDVVCRMGGEEFLIIIPDTAGPAAIQTAERVRSAVEQQQPAKLKLSRPLTASIGVADSTSAPSLKDLLLKADNALYQVKQNGRNGVRYAGLLEHHHHHH | not failed
3 | MSRTIAETPRPAVASMSSGCIPPHHRPDTLKQRWGTPAAVCLLVTCLFAMTLLTTGCKPPRRTPPTLPDRPDMATVEQPVVPPATVDGKDLDAPQTPKERIALALRLLDDGGDGADPTQAVQLIEQDATTGYAPAQDLLARLSLEGYGTAKDPARAFALAIEAARQGLPDAQRLAGTMYTLGLGTARDLEQGMRWLREAADAGDGEAAAMVADYYRQGLGVERNDTEAFLWTHRAAERGVKRAALWLGLHYHYGVGTPADQKQAFALLRPFADEGDAEALTIIALLLHKGEGVAQDRKAALRYFEKGAAAGDPVAQLDLGVLYHQGDGVTRDMDKARGLFRQCAEGGNARCMTLYASMLEEGEGGPSDPAEALAWYMVASMAGDDDATPFLDDLRSRITAEQAAQGKVRATAIIRSLTASPAADEASRQSSGQTAGQASGHASGQTPESTSARTSAPVPSALPREAAGKRPTVLP | failed
4 | MSRVKILDEETISHIAAGEVVERAASVVKELVENAVDADAQIIRIGISADKTGITKISVTDDGIGMDFDDALLAFRQHATSKISRPEDLDGITTLGFRGEALASIAAISKVTFTTKERGSPSPEAARVVIHGGELISHSAVGAPEGTSVLIDALFYNTPARRKFQKSVPTELSHVYDMVERIALSNRNISFVLLYNGKERFQTFGTGSYPDVIAAVFGSTFSKELTPVSGSFGPVKIDGWITRPGSEMKTTQTRFYLSINGRQVTSRQLQWAIREGYGTLLPKGMYPAAFLDIVLDPRDVDVNVHPTKREVRLSREREVMRCVQDAVYTSLHEERVFSTAPMPTLARETITTLPVEIVGEPVPVYAGKQEMHEARQAPLKQTEKQLRRTESADLPETDLFVPEVLGQIGDTYILAKNESGDLIVVDQHAAHERIMYDQLLARSSSAEAGQELIVPQPITLSKKETAALPDLLDVLAAAGYLLEPFGKDVWMVRSVPVVSSTLGDPDTIHAILDAALDGVGNTDEVLDRVLKTAACRAVVKGNTPLTIEQMQRLLRQLMATKSPYTCPHGRPTTIVLSKSRLAGMFLRT | failed
5 | MSRVPEPSVFLVVDEAKRKARERGVGLIDLSIGSTDLPPPEAPLKALAEALNDPTTYGYCLKSCTLPFLEEAARWYEGRYGVGLDPRREALALIGSQEGLAHLLLALTEPEDLLLLPEVAYPSYFGAARVASLRTFLIPLREDGLADLKAVPEGVWREAKVLLLNYPNNPTGAVADWGYFEEALGLARKHGLWLIHDNPYVDQVYEGEAPSPLALPGAKERVVELFSLSKSYNLAGFRLGFALGSEEALARLERVKGVIDFNQYAGVLRMGVEALKTPKEVVRGYARVYRERALGMAEALKGVLSLLPPRATMYLWGRLPEGVDDLEFGLRLVERGVALAPGRGFGPGGKGFVRIALVRPLEELLEAAKRIREALD | not failed
6 | MSSATKSSPATGGYLHYATLAPWKTLLRTRAYPGSLAGGSEATEATVAMELAEDWLVESLRLYQDFHAFDLSGATRVLEWVGEKGVFVAGYESLKKNEILHLILPLRLSVKENQGLYPERDFKVRHGGFSDRAVFDLKHVPDTRLLVTSGLPGCYIQVWQIREDNDVIEAVSTIDVQDKEESLWPRVSIFCSAAPGILHGARLSGLRTVDVESRKITYSSDTTDSESLSSLQVLDADTFAFCGTSGRLGLVDTRQKWAPLETVSPRAGSSGERWCAEVRSKGQGPGPCIASLGSDGQLCLLDPRNLRDPVSSAQCPVFKSSPDPELLRVTWAPGLDNCLAISGFDGTVQIYDVTSWDGKKTQVEALFIHKGHIFLDGNEVESAPLVTTHTWHPSKPRTLLSAASDAALHVWDWVDLQAS | failed
7 | MSSEAVDATTLVIIPTYNELENLPLIVDRVRTATPDVHVLIVDDNSPDGTGERADKLAADDDHIFVLHREGKGGLCAAYMAGFQWGLERDYQVLCEMDADGSHAPEQLHLLLAEITNGADLVIGSRYVPGGRVVNWPKNRWLLSKGGNVYISVALGAGLTDMTAGYRAFRREVLEALPLDELSNAGYIFQVEIAYRAVEAGFDVREVPITFTEREIGESKLDGSFVKDSLLEVTKWGLKHRGGQAKELSKEMVGLLNYEWKHFKKRNTWLLEHHHHHH | failed
8 | MSSEHSANGGPASAYGKPTFARASTPLPIQSAHMASDPIQITPSLTIPPSELVERFVRASGAGGQNVNKVSTAVELRFDVAGSPSLPEPLRARLLSRRDRRMTAEGVLVIDAQRFRTQDRNRDDARERLAEIISACLSVPKRRVATKPSHGAKLRRLDAKRERSHIKRGRSASHWE | failed
9 | MSSERVLSNARVVSAERVFVGSVLLRDGLIAAVDEGRSHLAGAEDLGGDYLLPGLVELHTDNLEKHMTPRPGVDWPSASAVLAHDAQIVSAGITTVFDALSIGDVNPKGKRMQQLPKMLEAIGEAAASGDARADHRLHLRCEVSHPQTLEVFRELVEHPLVQLVSVMDHAPGQRQFARLEKYREYYQGKYHLSDAEMDAFIVEQVANSERYSDAARAAIVDVCQGRGLSVASHDDATLAHVRESAGYGMAIAEFPTTVEAARASHEHGLQVLMGAPNVVRGGSHSGNVAAAQLAGIGVLDILSSDYYPASLLHAALLLAGEHSEYDAIRYDLPRAVAMVSRTPALAAGLTDRGEIRVGLRADLLQARALGNNQPVVRQVWRGGQRVF | failed
10 | MSSFLRPAVSGQDPFTTGNYRAISSHLAITPPVSVVIPAMNEAENLPYVFKSLPDWIHEVVLVDGNSTDGTVEVARELWPDVKVVEQRGKGKGDALITGFEACTGDIIVMVDADGSADGQEIVSYVSALVSGADFAKGSRFANGGGTSDMTPIRKLGNRVLCAAVNAKFGARYTDLCYGYNAFWRHCLDQIDLDCTGFEVETLMNIRVVKAGLKVQEIPSHEYLRIHGASNLRAVRDGLRVLKVILKERSNRRALRSRPHAMQLNSGQGEVSLEHHHHHH | not failed
11 | MSSGKVIVYGGKGALGSAILEFFKKNGYTVLNIDLSANDQADSNILVDGNKNWTEQEQSILEQTASSLQGSQVDGVFCVAGGWAGGSASSKDFVKNADLMIKQSVWSSAIAAKLATTHLKPGGLLQLTGAAAAMGPTPSMIGYGMAKAAVHHLTSSLAAKDSGLPDNSAVLTIMPVTLDTPMNRKWMPNADHSSWTPLSFISEHLLKWTTETSSRPSSGALLKITTENGTSTITPQ | not failed
12 | MSSHPPIRSYVLRQGYFSNAQRHAYESLLPRYGIPLTEEPVDLDSIFGRTAPGILEIGSGMGETTAEIARQHPEKDFIAIEVHAPGIGSLLGQIEKHRLTNLRIIPHDAKLVLQQMFTSESLDGIHIFFPDPWPKARHHKRRLIQPDFVSLLCDRLKPGGYLHIATDWEDYATHILHVLRSEERFVNTAVDYAARPAYRPLTKFEQRGMKLGHTIRDIIFTRTALEHHHHHH | failed
13 | MSSHPYVTQQNTPLADDTTLMSTTDLQSYITHANDTFVQVSGYTLQELQGQPHNMVRHPDMPKAAFADMWFTLKKGEPWSGIVKNRRKNGDHYWVRANAVPMVREGKISGYMSIRTRATDEE | failed
14 | MSSILSDTAPRFLADYRPADFTINTVNLTIHLDDTCSQVVSELTIERKGDVQQALQLNGEHLTLVSLVLDNQALSKDQYQINETLLIIPASSLPDRSHFTLIITTEINPQENTALEGLFKSGDAFCTQCEAEGFRRISYYLDRPDVMATFTTKVIADKNLYPYLLSNGNKVASGELSDNKHFVTWHDPFPKPCYLFALVAGNFDLLEDNFTTASGREVALEIFVDEGNLAKAEHAMTSLQKSMAWDEETFGLEYDLDIYMIVAVDFFNMGAMENKGLNVFNSKYVLADSHCATDSDYFNIEAVIAHEYFHNWTGNRVTCRDWFQLSLKEGLTVFRDQQFSAQMHSSAVTRIQNVRVLRSQQFAEDAGPMAHPIRPEKVLEMNNFYTLTVYEKGSEVIRMLHTLIGVDKFRQGMDLYFSRFDGMAVTCDDFINAMSDASGKDLAQFKLWYSQSGTPVIKAQEMFDSQTNIYTLTLLQQSPITKNQQNPQALHIPIKVELISDNNNEASQSELLELTQTEQSWQFSGFTSKPTLAMLADFSAPVKLIFDQNNTSLLTIMQQADNSFCRWDAGQKLLMSYLHQLTFDIDYTIPNELINAINDMLNSGGDRAFIAEQLSLPSFDEAASLMVDIDPIALTNAITTLATFIARGTQQQLLVSYKACQHEDLKDNAVANRALKNVCLSYLSLLPEYQYLVTQQYQQATNNDDILKENMTDSLAALTCSSKNNLDDLNEQLEHFENKWQQTTLVMDKWFALNASVVSEDVFTQLANLLEHPQFSLKNPNRARSLIGAFAMNNPKYFHCPTGRGYQFLADQIAKLNEINPQVASRLITPLIQFKSFAPAHQKLMKAELVKLQALTNLSNDLKEKLDAALND | failed
15 | MSSKDKKLSKPTSGRTGGIRTLSDLNRRSEPDSDSDSDGPQEYFTGGEKSGMLVQDPTKEPKHDDVDEIFNQARQLGAVEGPLEHPSSSRSFTGTGRLLSGESVPTALQQPEPVIHNIIFWSNGFTVDDGPLRKLDDPENASFLDSIRKSECPKELEPVDKRAPVHVNLMRRDEKCPEKEKLKVSFQGVGRTLGGASSSTASSQSNLTDVAAVQSPLQSLVVDETLPSTSIQLRLADGTRMVAKFNNHHTVNDIRGFIEFSRPGNPNNYTLQVMGFPPKPLTDPSQTIEQAGLASSVVIQKF | not failed
16 | MSSLNLSPAAVSELVFSQTGLALISLLLTLFCYFAAKILYQRHRVWWLAPIVLAPVVITLLVFNLDIPLPTYFEYTHWLMAMLAPATIAFALPIYRERKLIRQYPLTIAFGVIAGLLLGMVSSWLLVKFVPLPVELSKSLLVRSVSTPFAMEATGAFGGVPELTAMMVLITGIIGMLVCEPLFKLMHIRTSLGKGVALGASAHGAGAAKASELGQQEGVIASLTMIFIGIAMVLGAPFFALIFS | failed
17 | MSSQSIDDKFMSITQMKNLIHYVKKNDALSHLCIYILIITGSRFKPVQHLRYEDLNFKKSCIHLNDTKNKYSKRNVKVRIKDLEYIQSVINKHPINQNGYIFHNFINFISYSAINDVLVRFCLKYKYDKYTLKSLRHTHCSYLLAKGISIQYISKRLGHADIHTTLKIYSHLIKEFEDSENSLIEKNLNDLFSDLEHHHHHH | failed
18 | MSSSGIEIAKPFVTATTNVLSTMAGIQPIPGQPYVKKNNVAKGDVSAVVGITGHKNGSISVTFTKQCAIAVVKAMLGDDIQDIIQDTKDAVGEVTNMISGQARAALSEMGMTFQGATPSVIMGDGHTISHVTKSPVIAIPFKTNHGEFTVEFCLE | not failed
